Source: patent publication US20130012432A1 (Novo Nordisk, published 2013)
Positions of bridges follow the written chain, without caps; N, C: chain ends. Non-standard residues stand in square brackets, D forms with d. Groups on a side chain read outwards from the residue. Primed or numbered codes have the meaning given here. *: point of attachment. X5 = NH(2-(2-(2-(17-carboxyheptadecanoylamino)ethoxy)ethoxy)ethyl), O=C(O)CCCCCCCCCCCCCCCCC(=O)NCCOCCOCCN*; X6 = (2-(2-(17-carboxyheptadecanoylamino)ethoxy)ethoxy)acetyl, O=C(O)CCCCCCCCCCCCCCCCC(=O)NCCOCCOCC(=O)*; X3 = (2-(2-(15-carboxypentadecanoylamino)ethoxy)ethoxy)acetyl, O=C(O)CCCCCCCCCCCCCCC(=O)NCCOCCOCC(=O)*; biscarboxymethyl = Lys(biscarboxymethyl) = Nepsilon-bis(carboxymethyl)-L-lysine; bis(carboxymethyl) = Lys(biscarboxymethyl) = N6-bis(carboxymethyl)-L-lysine; Palmitoyl(16-(5-tetrazolyl)) = O=C(CCCCCCCCCCCCCCCc1nnn[nH]1)*; biscarboxymethyl(3) = Nepsilon-bis(carboxymethyl) on Lys; Lys(CH2CO2H)2 = N[C@@H](CCCCN(CC(=O)O)CC(=O)O)C(=O)O; C18 diacid = O=C(O)CCCCCCCCCCCCCCCCC(=O)*; Orn = NCCC[C@H](N)C(=O)O; Dab = NCC[C@H](N)C(=O)O; AEEA = NCCOCCOCC(=O)O

B1: Ac-c[Asp-His-D-Phe-Arg-Trp-Lys]-Pro-Pro-Arg-Asp-Lys(biscarboxymethyl)-Lys[(2-{2-[16-(tetrazol-5-yl)hexadecanoylamino]ethoxy}ethoxy)acetyl]-NH2 (peptide)
peptide: Ac-DH[dF]RWKPPRD[Lys(CH2CO2H)2]K([AEEA-Palmitoyl(16-(5-tetrazolyl))])-NH2
modifications: lactam 1-6
SMILES: CC(=O)N[C@H]1CC(=O)NCCCC[C@@H](C(=O)N2CCC[C@H]2C(=O)N2CCC[C@H]2C(=O)N[C@@H](CCCNC(=N)N)C(=O)N[C@@H](CC(=O)O)C(=O)N[C@@H](CCCCN(CC(=O)O)CC(=O)O)C(=O)N[C@@H](CCCCNC(=O)COCCOCCNC(=O)CCCCCCCCCCCCCCCc2nnn[nH]2)C(N)=O)NC(=O)[C@H](Cc2c[nH]c3ccccc23)NC(=O)[C@H](CCCNC(=N)N)NC(=O)[C@@H](Cc2ccccc2)NC(=O)[C@H](Cc2c[nH]cn2)NC1=O

How the values were obtained:
[1] = target: T1, MC1 receptor (UniProt Q01726 1-317, limits assumed); test: 125I-NDP-α-MSH displacement, BHK-MC1 membranes (Assay IV);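 note: membrane incubations stopped by filtration, retained radioactivity counted, Ki fitted by nonlinear regression to binding curves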
T1 construct: whole, on cells; also called melanocortin receptor subtype 1; melanocortin receptor 1
T1 sequence (Q01726 whole entry): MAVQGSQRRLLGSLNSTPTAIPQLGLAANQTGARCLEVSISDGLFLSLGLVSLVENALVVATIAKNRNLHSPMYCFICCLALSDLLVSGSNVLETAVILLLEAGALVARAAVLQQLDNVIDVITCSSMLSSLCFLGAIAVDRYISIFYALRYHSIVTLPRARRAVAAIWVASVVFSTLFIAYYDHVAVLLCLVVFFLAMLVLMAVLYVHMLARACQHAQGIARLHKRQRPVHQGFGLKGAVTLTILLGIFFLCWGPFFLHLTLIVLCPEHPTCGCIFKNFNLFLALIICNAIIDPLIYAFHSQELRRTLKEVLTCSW
Protocol: The MC1 receptor binding assay was performed on BHK cell membranes stably expressing the MC1 receptor. […] Test compounds were dissolved in DMSO. […] Alternatively, HSA may be substituted with ovalbumin. The samples were incubated at 30° C. for 90 min. in Costar round-bottom microtiter plates. Incubation was terminated by filtration on a Packard harvester filtermate. […] The filters were washed with ice-cold 0.9% NaCl 8-10 times. […] The plates were counted in a Topcounter (1 min/well).
(§1) The data were analysed by non-linear regression analysis of binding curves, using the Windows™ program GraphPad™ Prism (GraphPad Software, USA).

[2] = target: T2, human MC4 receptor (human, UniProt P32245 1-332); test: 125I-NDP-α-MSH displacement, BHK-human MC4 membranes (Assay V);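 note: Filter-retained radioactivity read by gamma counting, with affinity obtained through non-linear regression fitting of the binding curves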
T2 construct: whole, on cells; Assayed as membranes of BHK cells stably expressing the receptor; also called melanocortin receptor subtype 4; melanocortin receptor 4
T2 sequence (P32245 whole entry): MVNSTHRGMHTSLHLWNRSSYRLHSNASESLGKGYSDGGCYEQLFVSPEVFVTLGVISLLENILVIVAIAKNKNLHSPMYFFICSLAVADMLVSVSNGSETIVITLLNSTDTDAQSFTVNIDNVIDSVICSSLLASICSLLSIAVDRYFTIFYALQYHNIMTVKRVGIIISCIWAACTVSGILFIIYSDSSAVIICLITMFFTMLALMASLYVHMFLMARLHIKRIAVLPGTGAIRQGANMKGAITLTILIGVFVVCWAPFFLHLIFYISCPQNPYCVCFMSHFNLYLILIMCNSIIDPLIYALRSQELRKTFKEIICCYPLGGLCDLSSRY
Protocol: The membranes were prepared from frozen or fresh cells that were homogenized in 20 mM HEPES pH 7.1, 5 mM MgCl₂ and 1 mg/ml bacitracin and centrifuged at 15000 rpm at 4° C., 10 min in a Sorvall RC 5B plus, SS-34 rotor. The supernatant was discarded, and the pellets were re-suspended in buffer, homogenized and centrifuged two more times. The final pellets were resuspended in the buffer mentioned above, and the protein concentration was measured and adjusted with buffer to 14 to 17 mg/ml and the membrane preparation were kept at −80° C. until assay. The assay was run directly on a dilution of this cell membrane suspension, without any further preparation. The BHK cell membranes are kept at −80° C. until assay, and the assay is run directly on a dilution of this cell membrane suspension, without further preparation. The suspension is diluted to give maximally 10% specific binding, i.e. to approx. 50-100 fold dilution. […] Test compounds were dissolved in DMSO and diluted in binding buffer. Radiolabelled ligand and membranes were diluted in binding buffer. The incubation was stopped by dilution with 2×100 μl ice-cold 0.9% NaCl. The radioactivity retained on the filters was counted using a Cobra II auto gamma counter.
as §1

Binder	Ki [1] [nM]	Ki [2] [nM]
Ac-EH[dF]RW[Dab]PPRDK(biscarboxymethyl(3))K([AEEA-Palmitoyl(16-(5-tetrazolyl))])-NH2 (lactam 1-6)	3420	39
Ac-EH[dF]RW[Orn][dP][dP]RDK(biscarboxymethyl(3))K([AEEA-Palmitoyl(16-(5-tetrazolyl))])-NH2 (lactam 1-6)	8840	4.6
Ac-[Orn]H[dF]RWDPSSSK(bis(carboxymethyl))SSK([AEEA-C18 diacid])-NH2 (lactam 1-6)	141	0.8
Ac-[Orn]H[dF]RWDPPREK(biscarboxymethyl)K(X6)-NH2 (lactam 1-6)	1940	0.8
Ac-EH[dF]RW[Orn]PPRDK(biscarboxymethyl)K(X6)-NH2 (lactam 1-6)	4690	0.9
Ac-[Orn]H[dF]RWDPSSSK(bis(carboxymethyl))SSK([AEEA-Palmitoyl(16-(5-tetrazolyl))])-NH2 (lactam 1-6)	5610	0.9
B1	279	13
Ac-EH[dF]RW[Orn]PPRDK(biscarboxymethyl)K(X3)-NH2 (lactam 1-6)	3970	5.8
Ac-[Orn]H[dF]RWDPPREK(biscarboxymethyl)K(X3)-NH2 (lactam 1-6)	2140	2.2
Ac-[Dab]H[dF]RWDPSSSK(biscarboxymethyl(3))SS-X5 (lactam 1-6)	9130	10.8
